Source: patent publication US20060246046A1 (published 2006)

T1: factor XIIIa (human, UniProt P00488 39-732)
T1 sequence (looked up): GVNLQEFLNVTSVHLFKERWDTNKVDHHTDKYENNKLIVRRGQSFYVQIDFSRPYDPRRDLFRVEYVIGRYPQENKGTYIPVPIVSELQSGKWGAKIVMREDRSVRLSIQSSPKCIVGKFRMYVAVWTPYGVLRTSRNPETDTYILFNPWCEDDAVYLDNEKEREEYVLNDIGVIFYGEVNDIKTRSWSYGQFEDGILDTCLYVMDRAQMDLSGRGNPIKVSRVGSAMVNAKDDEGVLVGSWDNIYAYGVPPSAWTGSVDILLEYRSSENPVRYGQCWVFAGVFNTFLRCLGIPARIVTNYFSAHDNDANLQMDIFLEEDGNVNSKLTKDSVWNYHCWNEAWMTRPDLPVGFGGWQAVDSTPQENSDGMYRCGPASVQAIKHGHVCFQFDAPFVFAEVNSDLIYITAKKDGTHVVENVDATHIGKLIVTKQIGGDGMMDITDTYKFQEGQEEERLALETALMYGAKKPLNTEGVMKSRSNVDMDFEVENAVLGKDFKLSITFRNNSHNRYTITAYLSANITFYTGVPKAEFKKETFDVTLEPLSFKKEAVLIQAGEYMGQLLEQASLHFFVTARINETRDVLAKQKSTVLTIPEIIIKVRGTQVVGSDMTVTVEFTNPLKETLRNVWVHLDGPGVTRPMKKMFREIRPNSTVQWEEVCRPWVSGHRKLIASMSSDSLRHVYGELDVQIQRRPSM

B1: DDIYQRPVEFPNLP (SEQ ID No. 88) (14mer) (peptide)
peptide: DDIYQRPVEFPNLP
B2: 20 amino acid-long tridegin peptide SEQ ID NO.24 (peptide)
peptide: Ac-IKPMDDIYQRPVEFPNLPLK-NH2
B3: 20 amino acid-long tridegin peptide SEQ ID NO.25 (peptide)
peptide: Ac-PMDDIYQRPVEFPNLPLKPR-NH2
B4: 20 amino acid-long tridegin peptide SEQ ID NO.26 (peptide)
peptide: Ac-DDIYQRPVEFPNLPLKPREE-NH2

Tests used:
factor XIIIa [1] = target: T1, factor XIIIa; assay: cell-based or functional assay
factor XIIIa [2] = target: T1, factor XIIIa; assay: cell-based or functional assay; remark: listed apart in the source

Binder | IC50, Berichrom test, purified peptide (factor XIIIa [1]) | IC50, Berichrom assay, HPLC-purified peptide (factor XIIIa [1]) | Relative inhibitory effect (%) at 7.27 µM, recombinant tridegin = 100% (factor XIIIa [2])
B1 | ~280 µM | – | –
B2 | – | 7 µM | 43.5%
B3 | – | 4 µM | 42.1%
B4 | – | 5 µM | 35.6%
